The supplement of paper PMC9170038

System: MS2 coat protein
Test: apparent KD of MS2 coat protein; designed switch direction (-1 OFF switch, 1 ON switch): 1; higher = weaker reporter binding
In short: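 Apparent KD, taken as the median over clusters for each design, was obtained by curve-fitting normalised cluster fluorescence. Designed RNA switches had been transcribed on Illumina chips by stalled E. coli RNA polymerase and titrated with SNAP-549-labelled MS2 coat protein, doubling from 0.7 or 1.5 nM to 3 µM.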

[1] = Eterna round: R95, input ligand: FMN 200 uM
[2] = Eterna round: R95, input ligand: microRNA oligo, concentration not stated
[3] = Eterna round: R95, input ligand: none
[4] = input ligand: microRNA oligo, concentration not stated

Sequence | apparent KD of MS2 coat protein [1] | apparent KD of MS2 coat protein [2] | apparent KD of MS2 coat protein [3] | apparent KD of MS2 coat protein (input ligand: FMN 200 uM) | apparent KD of MS2 coat protein [4] | apparent KD of MS2 coat protein (input ligand: none)
UCUUGGUUUUUGCUCGUUUUUUGUGUUGAACAUGAGGAUCACCCAUGUAUUGUACAGUCCAGUUUAAUAAUGGUCCG [JMF 55] (puzzle: Sensor for hsa-mir-208a) | 36.9 nM | 25.6 nM | 38.1 nM |  |  | 
UCUUGGUUUUUGCUCGUUUUUUGUGUUGAACAUGAGGAUCACCCAUGUAUUGUACGGUCCAAUUUAAUAAUAGUCCG [JMF 65] (puzzle: Sensor for hsa-mir-208a) | 26.6 nM | 19.7 nM | 32.4 nM |  |  | 
UCUUGGUUUUUGCUCGUUUUUUGUGUUGAACAUGAGGAUCACCCAUGUAUUGUACGGUCCAGUUUGAUAAUGGUCCG [JMF 34] (Eterna round: R96, puzzle: Sensor for hsa-mir-208a) |  |  |  | 35.2 nM | 13.3 nM | 40.2 nM
UCUUGGUUUUUGCUCGUUUUUUGUGUUGAACAUGAGGAUCACCCAUGUAUUGUACGGUCCAGUUUGAUAAUGGUCCG [JMF 34] (puzzle: Sensor for hsa-mir-208a) | 25.6 nM | 14.3 nM | 27.3 nM |  |  | 
UCUUGGUUUUUGCUCGUUUUUUGUGUUGAACAUGAGGAUCACCCAUGUAUUGUACGGUCCGGUUUGAUAAUGGUCCG [JMF 13] (puzzle: Sensor for hsa-mir-208a) | 26 nM | 15.5 nM | 27.1 nM |  |  | 
UCUUGGUUUUUGCUCGUUUUUUGUGUUGAACAUGAGGAUCACCCAUGUAUUGUACGGUCCGGUUUGAUAGUGGUCCA [JMF 45] (puzzle: Sensor for hsa-mir-208a) | 111 nM | 71.6 nM | 120 nM |  |  | 
UGAACCUUCACAGGAUAUCAUGCGAAAAUUGCGUGAGAAGGGUGGAUGUGGUGUUCAAAGAUGCACAUGAGGAUCACCCAUGUA [SameState NG1 #48] (Eterna round: R96, puzzle: Same State NG 1) |  |  |  | 106 nM | 166 nM | 203 nM
UGAAUAUCUACAGGAUAUGAGUUGUAUAGUGGAUCAGAAGGGUGGGUGUUUUGCACGGUGUGUUACAUGAGGAUCACCCAUGUU [SameState NG1 #25] (Eterna round: R96, puzzle: Same State NG 1) |  |  |  | 302 nM | 139 nM | 324 nM
UGCAUACGCCUACAAGAGGAGUCCUGCAGACAUGAGGAUCACCCAUGUAACUCGAAUUCAGUUCGUUCGUCUGUCGU [JR_hsamir208a_Sub1412] (Eterna round: R96, puzzle: Sensor for hsa-mir-208a) |  |  |  | 57 nM | 33.9 nM | 52.9 nM
UGCCUGAGUCGAGGAUAUUAUGGAUCAAUUAAUACAUGAGGAUCACCCAUGUAAUUAAUUUAACAUGAGAAGGCGACUCAGGCU [SSNG2/10-A3] (Eterna round: R96, puzzle: Same State NG 2) |  |  |  |  | 7.93 nM | 
UGGAUCUAGGCUUGCCUGGGUCCAUGCUGACAUGAGGAUCACCCAUGUGCAUCCUACAAGCUUUUUGCUUGUCAGUU (Eterna round: R96, puzzle: Sensor for hsa-mir-208a) |  |  |  | 575 nM | 330 nM | 289 nM
UGGAUCUAGGCUUGCCUGGGUCCAUGCUGACAUGAGGAUCACCCAUGUGCAUCCUACAAGCUUUUUGCUUGUCAGUU (puzzle: Sensor for hsa-mir-208a) | 232 nM | 166 nM | 135 nM |  |  | 
UGGCUCAGACGAGGAUAUAUGUGGUCACAUGAGGAUCACCCAUGUCUCGAGCUUCGGCUCGAGGCAUAGAAGGCGUCUGAGCCA [SSNG2/5-A2] (Eterna round: R96, puzzle: Same State NG 2) |  |  |  | 1300 nM | 50.8 nM | 632 nM
UGGCUGGUGCUAGGAUAUGCAUGAGGCCUCCUCGUAGAAGGAGCACGACAUGAGGAUCACCCAUGUGGCCGUCCGUGGGCGGCU [salish99_SSNG1_r04_015] (Eterna round: R96, puzzle: Same State NG 1) |  |  |  | 68 nM | 44.8 nM | 60.1 nM
UGGUAACAUGAGGAUCACCCAUGUCAAAUGAAUCGAGGAUAUGGGAAGGAAGAAGAGAAACUAGAAGGCGAAGUUG [Altered State 1-5 - Jieux - Same State 1] (puzzle: Same State 1) | 89 nM | 101 nM | 127 nM |  |  | 
UGGUACAUGGGAGGAUAUCAUGCAGACAUGAGGAUCACCCAUGUAGCCAUGGAGACAUGGGUAUAUGAGAAGGCCCAUGUACCU [JL SSNG1 3.53] (Eterna round: R96, puzzle: Same State NG 2) |  |  |  | 145 nM | 37.7 nM | 207 nM
UGGUACAUGGGAGGAUAUCAUGUAGAAACAUGAGGAUCACCCAUGUAGAUGGCCGGUAACCGGAAUGAGAAGGCCCAUGUACCU [JL SSNG1 3.63] (Eterna round: R96, puzzle: Same State NG 2) |  |  |  | 22.7 nM | 18.9 nM | 30.6 nM
UGGUACAUGGGAGGAUAUCAUGUAGAAACAUGAGGAUCACCCAUGUAGUUGGCAGCUUUGCUGAAUGAGAAGGCCCAUGUACCU [JL SSNG1 3.59] (Eterna round: R96, puzzle: Same State NG 2) |  |  |  | 20.6 nM | 19.5 nM | 26.7 nM
UGGUACAUGGGAGGAUAUCAUGUAGACACAUGAGGAUCACCCAUGUCGAUGGAGACAUCGGAGAUUGAGAAGGCCCAUGUACCU [JL SSNG1 3.55] (Eterna round: R96, puzzle: Same State NG 2) |  |  |  | 18.6 nM | 291 nM | 647 nM
UGGUACAUGGGAGGAUAUCCUAUGGUGACAUGAGGAUCACCCAUGUAAUUGGAGCCGAAAGGCAUGGAGAAGGCCCAUGUACCU [JL SSNG1 3.78] (Eterna round: R96, puzzle: Same State NG 2) |  |  |  | 40.2 nM | 31.4 nM | 44.1 nM
UGGUACAUGGGAGGAUAUCUCAUGGUGACAUGAGGAUCACCCAUGUAGUUGGAGCCGAAAGGCAGAGAGAAGGCCCAUGUACCU [JL SSNG1 3.77] (Eterna round: R96, puzzle: Same State NG 2) |  |  |  | 69.2 nM | 65.7 nM | 96.3 nM
UGGUACAUGGGAGGAUAUCUCGUGGAGACAUGAGGAUCACCCAUGUAGAUGGCCGGUAACCGGUGAGAGAAGGCCCAUGUACCU [JL SSNG1 3.69] (Eterna round: R96, puzzle: Same State NG 2) |  |  |  | 71.6 nM | 42.2 nM | 141 nM
UGUACCUUCACAGGAUAUCAUGCGAAAAUUGCGUGAGAAGGGUGAAUACUGUCUUACUAAGAGCACAUGAGGAUCACCCAUGUA [SameState NG1 #58] (Eterna round: R96, puzzle: Same State NG 1) |  |  |  | 269 nM | 198 nM | 296 nM
UGUAUACAUGAGGAUCACCCAUGUCAACGUAGUCGAGGAUAUGGGCAGCCGUGAGGCGUACUAGAAGGCGAAGAGG [JL-ss1-3.06 ViennaUCT mod] (puzzle: Same State 1) |  | 116 nM |  |  |  | 
UGUUAACAUGAGGAUCACCCAUGUCAAAUGAAUGCAGGAUAUGGGAAGUAAUAAGAUAAACCAGAAGGGCAAGUUG [Altered State 1-17 - Jieux - Same State 1] (puzzle: Same State 1) | 49.4 nM | 162 nM | 311 nM |  |  | 
UGUUAUUAGACAGGAUAUUGAAUGUUAAGUAUUAACAUGAGGAUCACCCAUGUAUUUGAUUGGUACAAGAAGGGUCAUGUUCCU [JR_SSNG2_Sub016] (Eterna round: R96, puzzle: Same State NG 2) |  |  |  |  | 399 nM | 
UGUUCGUAGGAAGGAUAUCGAAAUAAAGGCGUCCACAUGAGGAUCACCCAUGUCGGCGGACCAAACGAGAAGGUCUACCCGGAC [Eternabot solution 12] (Eterna round: R96, puzzle: Same State NG 2) |  |  |  | 9.42 nM | 8.37 nM | 11.6 nM
UGUUGUAUUACAGGAUAUCUAGUAUAUUUAUUUAGAGAAGGGUAUUCACAUGAGGAUCACCCAUGUAUAUACGAGGAAGUUGUG [JMF's solution 37] (Eterna round: R96, puzzle: Same State NG 1) |  |  |  |  | 29.6 nM | 
